Source: the supplement of paper PMC10724198
± gives the standard deviation of the averaged measurements.

Columns and labels:
[1] = tested on: Saccharomyces cerevisiae; test: protein stability index of tFT-peptide fusion (C-terminal peptide) (PSI (0-1 scale)); higher = more stable (slower turnover)
Description: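 MPS profiling in S. cerevisiae of the tFT-X12 degron library: putative degron peptides plus stable controls, 12 aa, fused to the C-terminus of a sfGFP-mCherry timer. Cells are FACS-sorted into 8 mCherry/sfGFP bins and deep-sequenced. PSI runs from 0 (unstable) to 1 (stable). Backgrounds are wild type, das1Δ and doa10Δ at 30 °C, and wild type, das1Δ, cdc34-1 and cdc53-1 at 37 °C; 2-3 technical replicates each.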

[2] = tested on: Saccharomyces cerevisiae; test: as above; settings: genetic background: wild type; temperature: 30 C
[3] = genetic background: cdc34-1, temperature: 37 C
[4] = genetic background: cdc53-1, temperature: 37 C
[5] = genetic background: das1 deletion, temperature: 30 C
[6] = genetic background: das1 deletion, temperature: 37 C
[7] = genetic background: doa10 deletion, temperature: 30 C
[8] = genetic background: wild type, temperature: 30 C
[9] = genetic background: wild type, temperature: 37 C
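Note: PSI is a weighted mean of sequencing reads over stability bins, variants kept only with over 10 reads, mCherry proximal and sfGFP distal, peptide attached via GGGS linker.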

LRCIFVVVSFTP
protein stability index [1, 3]: 0.0799 ± 0.045 | protein stability index [1, 4]: 0.2 ± 0.025 | protein stability index [1, 5]: 0.172 ± 0.035 | protein stability index [1, 6]: 0.305 ± 0.014 | protein stability index [1, 7]: 0.129 ± 0.0095 | protein stability index [1, 8]: 0.153 ± 0.035 | protein stability index [1, 9]: 0.25 ± 0.0035 | protein stability index [2]: 0.291 ± 0.15

PLFPPTDSPSPN
protein stability index [1, 3]: 0.7098 ± 0.0063 | protein stability index [1, 4]: 0.729 ± 0.051 | protein stability index [1, 5]: 0.668 ± 0.025 | protein stability index [1, 6]: 0.724 ± 0.018 | protein stability index [1, 7]: 0.685 ± 0.025 | protein stability index [1, 8]: 0.648 ± 0.015 | protein stability index [1, 9]: 0.709 ± 0.029 | protein stability index [2]: 0.727 ± 0.03

FALAYFFVLKSF
protein stability index [1, 3]: 0.228 ± 0.019 | protein stability index [1, 4]: 0.246 ± 0.057 | protein stability index [1, 5]: 0.243 ± 0.045 | protein stability index [1, 6]: 0.423 ± 0.0084 | protein stability index [1, 7]: 0.0908 ± 0.011 | protein stability index [1, 8]: 0.0862 ± 0.02 | protein stability index [1, 9]: 0.1132 ± 0.001 | protein stability index [2]: 0.172 ± 0.0026

FSSYLSALLIVV
protein stability index [1, 3]: 0.102 ± 0.047 | protein stability index [1, 4]: 0.1279 ± 0.00017 | protein stability index [1, 5]: 0.176 ± 0.017 | protein stability index [1, 6]: 0.242 ± 0.0039 | protein stability index [1, 7]: 0.155 ± 0.0065 | protein stability index [1, 8]: 0.167 ± 0.029 | protein stability index [1, 9]: 0.214 ± 0.019 | protein stability index [2]: 0.246 ± 0.012

KKNKIYKERKNI
protein stability index [1, 3]: 0.702 ± 0.17 | protein stability index [1, 5]: 0.6248 ± 0.0028 | protein stability index [1, 6]: 0.7245 ± 0.0029 | protein stability index [1, 7]: 0.203 ± 0.02 | protein stability index [1, 8]: 0.289 ± 0.13 | protein stability index [1, 9]: 0.462 ± 0.064 | protein stability index [2]: 0.434 ± 0.046

NRLHYSPLYTIY
protein stability index [1, 3]: 0.641 ± 0.087 | protein stability index [1, 4]: 0.735 ± 0.033 | protein stability index [1, 5]: 0.653 ± 0.0076 | protein stability index [1, 6]: 0.753 ± 0.0065 | protein stability index [1, 7]: 0.111 ± 0.011 | protein stability index [1, 8]: 0.153 ± 0.015 | protein stability index [1, 9]: 0.256 ± 0.0026 | protein stability index [2]: 0.239 ± 0.0099

VVIGAVLFVVVR
protein stability index [1, 3]: 0.0736 ± 0.0063 | protein stability index [1, 4]: 0.21 ± 0.015 | protein stability index [1, 5]: 0.157 ± 0.028 | protein stability index [1, 6]: 0.291 ± 0.0065 | protein stability index [1, 7]: 0.12 ± 0.0087 | protein stability index [1, 8]: 0.134 ± 0.035 | protein stability index [1, 9]: 0.25 ± 0.005 | protein stability index [2]: 0.29 ± 0.012

SVFFALFLRCTP
protein stability index [1, 3]: 0.26 ± 0.058 | protein stability index [1, 4]: 0.229 ± 0.055 | protein stability index [1, 5]: 0.34 ± 0.031 | protein stability index [1, 6]: 0.442 ± 0.005 | protein stability index [1, 7]: 0.43 ± 0.026 | protein stability index [1, 8]: 0.323 ± 0.024 | protein stability index [1, 9]: 0.405 ± 0.02 | protein stability index [2]: 0.359 ± 0.05

LVVEALFYVLVS
protein stability index [1, 3]: 0.036 ± 0.011 | protein stability index [1, 4]: 0.0563 ± 0.025 | protein stability index [1, 5]: 0.126 ± 0.025 | protein stability index [1, 6]: 0.181 ± 0.0096 | protein stability index [1, 7]: 0.0851 ± 0.0085 | protein stability index [1, 8]: 0.107 ± 0.021 | protein stability index [1, 9]: 0.124 ± 0.014 | protein stability index [2]: 0.219 ± 0.054

RFACHDFVVLLC
protein stability index [1, 3]: 0.568 ± 0.023 | protein stability index [1, 4]: 0.605 ± 0.022 | protein stability index [1, 5]: 0.453 ± 0.017 | protein stability index [1, 6]: 0.626 ± 0.026 | protein stability index [1, 7]: 0.172 ± 0.0095 | protein stability index [1, 8]: 0.17 ± 0.029 | protein stability index [1, 9]: 0.303 ± 0.017 | protein stability index [2]: 0.289 ± 0.0045

PFLPFPPPLPAY
protein stability index [1, 3]: 0.4873 ± 0.0045 | protein stability index [1, 4]: 0.553 ± 0.015 | protein stability index [1, 5]: 0.394 ± 0.026 | protein stability index [1, 6]: 0.5646 ± 0.0038 | protein stability index [1, 7]: 0.362 ± 0.0056 | protein stability index [1, 8]: 0.408 ± 0.018 | protein stability index [1, 9]: 0.5079 ± 0.0042 | protein stability index [2]: 0.0909 ± 0.028

LVFCFRSLFLCS
protein stability index [1, 3]: 0.57 ± 0.057 | protein stability index [1, 4]: 0.603 ± 0.0097 | protein stability index [1, 5]: 0.542 ± 0.012 | protein stability index [1, 6]: 0.6784 ± 0.0048 | protein stability index [1, 7]: 0.254 ± 0.014 | protein stability index [1, 8]: 0.243 ± 0.019 | protein stability index [1, 9]: 0.39121 ± 0.00016 | protein stability index [2]: 0.34 ± 0.022

FSYVGFFFLLGF
protein stability index [1, 3]: 0.417 ± 0.051 | protein stability index [1, 4]: 0.471 ± 0.0073 | protein stability index [1, 5]: 0.346 ± 0.021 | protein stability index [1, 6]: 0.494 ± 0.0069 | protein stability index [1, 7]: 0.392 ± 0.049 | protein stability index [1, 8]: 0.352 ± 0.025 | protein stability index [1, 9]: 0.467 ± 0.0053 | protein stability index [2]: 0.414 ± 0.016

RQFRNPLYAFVC
protein stability index [1, 3]: 0.496 ± 0.043 | protein stability index [1, 4]: 0.687 ± 0.011 | protein stability index [1, 5]: 0.566 ± 0.019 | protein stability index [1, 6]: 0.697 ± 0.014 | protein stability index [1, 7]: 0.124 ± 0.0069 | protein stability index [1, 8]: 0.137 ± 0.0092 | protein stability index [1, 9]: 0.187 ± 0.035 | protein stability index [2]: 0.193 ± 0.021

CTWGRYGGIWLR
protein stability index [1, 3]: 0.0548 ± 0.007 | protein stability index [1, 4]: 0.0483 ± 0.033 | protein stability index [1, 5]: 0.136 ± 0.062 | protein stability index [1, 6]: 0.144 ± 0.013 | protein stability index [1, 7]: 0.668 ± 0.034 | protein stability index [1, 8]: 0.117 ± 0.023 | protein stability index [1, 9]: 0.11 ± 0.016 | protein stability index [2]: 0.254 ± 0.058

AFFALGSFFFLL
protein stability index [1, 3]: 0.631 ± 0.042 | protein stability index [1, 4]: 0.685 ± 0.0071 | protein stability index [1, 5]: 0.586 ± 0.039 | protein stability index [1, 6]: 0.7296 ± 0.0054 | protein stability index [1, 7]: 0.265 ± 0.0044 | protein stability index [1, 8]: 0.289 ± 0.03 | protein stability index [1, 9]: 0.519 ± 0.034 | protein stability index [2]: 0.0874 ± 0.015

LRCLAIFLYRAF
protein stability index [1, 3]: 0.576 ± 0.045 | protein stability index [1, 4]: 0.6238 ± 0.0039 | protein stability index [1, 5]: 0.49 ± 0.02 | protein stability index [1, 6]: 0.644 ± 0.015 | protein stability index [1, 7]: 0.399 ± 0.013 | protein stability index [1, 8]: 0.404 ± 0.02 | protein stability index [1, 9]: 0.563 ± 0.015 | protein stability index [2]: 0.466 ± 0.013

SVGVVWVLSVEG
protein stability index [1, 3]: 0.444 ± 0.042 | protein stability index [1, 4]: 0.517 ± 0.015 | protein stability index [1, 5]: 0.33 ± 0.031 | protein stability index [1, 6]: 0.5415 ± 0.0018 | protein stability index [1, 7]: 0.308 ± 0.0081 | protein stability index [1, 8]: 0.343 ± 0.018 | protein stability index [1, 9]: 0.503 ± 0.0036 | protein stability index [2]: 0.454 ± 0.0074

EHIRWLLPKHCL
protein stability index [1, 3]: 0.681 ± 0.027 | protein stability index [1, 4]: 0.73 ± 0.026 | protein stability index [1, 5]: 0.647 ± 0.03 | protein stability index [1, 6]: 0.725 ± 0.03 | protein stability index [1, 7]: 0.2907 ± 0.0018 | protein stability index [1, 8]: 0.314 ± 0.017 | protein stability index [1, 9]: 0.613 ± 0.063 | protein stability index [2]: 0.454 ± 0.041

ASTGPLAAIRVY
protein stability index [1, 3]: 0.519 ± 0.0057 | protein stability index [1, 4]: 0.622 ± 0.023 | protein stability index [1, 5]: 0.396 ± 0.028 | protein stability index [1, 6]: 0.5994 ± 0.0011 | protein stability index [1, 7]: 0.377 ± 0.035 | protein stability index [1, 8]: 0.41 ± 0.019 | protein stability index [1, 9]: 0.588 ± 0.017 | protein stability index [2]: 0.495 ± 0.013
